Consider seven molecules from patent publication US20230295313A1 (published 2023).

For orientation: Kd means a measure of binding affinity in units of concentration. Read a high Kd as a looser complex. As usually defined, the koff is the first-order rate constant of dissociation. One may read the kon as a measure of how fast the partners come together. A high value points to fast association.

Assay [1] addresses T1, human IL1RAP extracellular domain protein (GK002, HuIL1Racp-ECD-His6) (human, UniProt Q9NPH3 21-367).
T1 construct: also called His-tagged human IL-1RAP extracellular domain protein; HuIL1RAP-ECD-His6 (GK002)
T1 sequence: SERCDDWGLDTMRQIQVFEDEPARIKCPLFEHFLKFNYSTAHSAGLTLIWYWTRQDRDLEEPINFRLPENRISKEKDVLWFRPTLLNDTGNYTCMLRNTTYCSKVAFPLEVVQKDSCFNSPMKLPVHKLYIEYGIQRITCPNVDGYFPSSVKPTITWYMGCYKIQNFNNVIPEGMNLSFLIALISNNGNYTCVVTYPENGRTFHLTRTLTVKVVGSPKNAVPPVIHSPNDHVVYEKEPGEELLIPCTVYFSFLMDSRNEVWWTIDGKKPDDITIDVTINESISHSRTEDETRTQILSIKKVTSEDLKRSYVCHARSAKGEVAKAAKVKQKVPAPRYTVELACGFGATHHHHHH
The assay is described as follows: SPR (Biacore T200), mAb captured by anti-Fc IgG, His-tagged human IL1RAP ECD as analyte. In general terms: In SPR one partner is held on a chip, and binding of the other changes the refractive index at the surface.
Description: The binding kinetics and affinities of murine anti-human IL1RAP mAbs for human IL1RAP protein were determined by surface plasmon resonance technology using the Biocore T200 platform. An anti-Fc IgG antibody was immobilized on the surface of a Biacore chip and used to capture the test antibody at a flow rate of 30 µL/min. Serial dilutions of His-tagged human IL-1RAP extracellular domain protein were then flowed over the chip, with a 3-minute association phase, followed by a 20-60 minute dissociation phase. In between cycles, the Biacore chip was regenerated for 120 seconds by flowing Glycine pH 1.5 over the chip at a flow rate of 10 µL/min. Association (ka) and dissociation (kd) constants were determined, as were binding affinities (KD), with the multiple cycle kinetics algorithm.

In assay [2] the target is T2, human IL1RAP on the cell surface (HEK293/IL1RAP cells; IL1RAP-expressing OCI-AML-1 cells) (human, UniProt Q9NPH3 21-570).
T2 sequence: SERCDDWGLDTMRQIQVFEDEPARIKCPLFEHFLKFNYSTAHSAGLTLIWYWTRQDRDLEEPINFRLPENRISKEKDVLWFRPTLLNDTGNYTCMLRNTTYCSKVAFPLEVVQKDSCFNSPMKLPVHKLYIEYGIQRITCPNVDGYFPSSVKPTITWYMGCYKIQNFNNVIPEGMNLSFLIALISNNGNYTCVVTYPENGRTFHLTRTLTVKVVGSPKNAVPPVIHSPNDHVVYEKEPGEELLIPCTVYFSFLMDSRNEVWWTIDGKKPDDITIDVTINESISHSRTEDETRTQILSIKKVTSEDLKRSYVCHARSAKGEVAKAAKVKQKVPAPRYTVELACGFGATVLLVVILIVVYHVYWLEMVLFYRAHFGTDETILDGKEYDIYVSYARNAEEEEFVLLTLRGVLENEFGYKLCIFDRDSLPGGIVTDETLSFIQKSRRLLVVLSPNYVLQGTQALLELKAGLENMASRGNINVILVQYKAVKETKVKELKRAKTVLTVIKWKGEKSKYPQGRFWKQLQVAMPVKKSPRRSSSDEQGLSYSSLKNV
In words: cell-based or functional assay.

Assay [3] addresses T2, human IL1RAP on the cell surface …. The assay is described as follows: cell-based or functional assay. This is another data set of the same source.
Assay [4] deals with T3, Cyno IL1RAP ECD (cynomolgus monkey, UniProt A0A2K5X5J5 21-367).
T3 construct: extracellular domain; Analyte in the GSK3903371A SPR study; also called cynomolgus monkey IL1RAP ECD
T3 sequence: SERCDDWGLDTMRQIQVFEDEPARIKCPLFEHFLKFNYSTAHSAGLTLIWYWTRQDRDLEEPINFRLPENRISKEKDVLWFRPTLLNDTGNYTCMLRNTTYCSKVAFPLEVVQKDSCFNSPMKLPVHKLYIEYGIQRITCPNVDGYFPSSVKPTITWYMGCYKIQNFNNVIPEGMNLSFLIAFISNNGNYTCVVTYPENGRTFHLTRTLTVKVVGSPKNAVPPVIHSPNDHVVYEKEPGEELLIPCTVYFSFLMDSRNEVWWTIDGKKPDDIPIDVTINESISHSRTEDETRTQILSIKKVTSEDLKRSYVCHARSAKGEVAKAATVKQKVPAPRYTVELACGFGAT
The assay is described as follows: SPR, antibody captured via Protein A on CM5 chip, 25° C., 1:1 fit, average of 3 runs.
Description: (§1) Human and cyno IL1RAP ECD, and human soluble IL1RAP, were then flowed over the captured antibody to replicate non-avid target binding. Data were analyzed using a 1:1 kinetic fit model.

Assay [5] deals with T4, Human IL1RAP ECD (human, UniProt Q9NPH3 21-367).
T4 construct: Analyte in the GSK3903371A SPR study; also called human IL1RAP extracellular domain (ECD); recombinant human IL1RAP ECD
T4 sequence: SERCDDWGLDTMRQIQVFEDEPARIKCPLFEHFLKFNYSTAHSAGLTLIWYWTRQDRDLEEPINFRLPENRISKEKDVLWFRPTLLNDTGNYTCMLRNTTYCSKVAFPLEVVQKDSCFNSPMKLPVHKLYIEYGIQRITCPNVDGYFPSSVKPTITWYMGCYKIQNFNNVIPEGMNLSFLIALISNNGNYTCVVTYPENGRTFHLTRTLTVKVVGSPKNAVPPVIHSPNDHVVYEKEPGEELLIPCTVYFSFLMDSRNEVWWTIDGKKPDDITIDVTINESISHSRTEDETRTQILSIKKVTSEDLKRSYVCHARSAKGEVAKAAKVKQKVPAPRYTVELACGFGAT
Described as above.
Description: as §1

Assay [6] has as its target T5, Soluble Human IL1RAP (sIL1RAP) (human, UniProt Q9NPH3 21-367). The assay is described as above.
Description: as §1
In assay [7] the target is T3, Cyno IL1RAP ECD. The assay is described as follows: SPR, antibody captured via Protein A on CM5 chip, 37° C., 1:1 fit, average of 2 runs.
Description: as §1
Assay [8] deals with T4, Human IL1RAP ECD. The description is as above.
Description: as §1
In assay [9] the target is T5, Soluble Human IL1RAP (sIL1RAP). Described as above.
Description: as §1
Assay [10] addresses T1, human IL1RAP extracellular domain …. The assay is described as follows: SPR (Biacore T200), mAb captured by anti-human IgG Fc on CM5, ECD-His6 as analyte, 1:1 fit.
Description: (§2) Serial dilutions of recombinant human IL1RAP-ECD-His6 protein (GK002) or cyno IL1RAP-ECD-His6 protein (GK017) were flowed over the captured humanized mAb, and the KD was determined using Biacore T200 evaluation software v1.0.
(§3) Flow cell 1 was used as reference flow cell and no antibody was injected into flow cell 1. Test antibodies were captured onto one of the flow cells 2, 3 and 4 at a flow rate of 10 µL/min. Diluted GK002 or GK017 was then injected over the 4 flow cells for 180 s at 30 µL/min flow rate to collect data for association. Buffer flow was maintained for 1200 s at 30 µL/min flow rate for dissociation measurement. At the end of the dissociation measurement, the tested antibody and antigen were removed from the surface by 10 mM glycine-HCl pH 1.5 injection for 60 seconds at a flow rate of 10 µL/min. The above steps were repeated for each concentration of serially-diluted His-tagged IL1RAP ECD protein. The KD value for each antibody was evaluated using Biacore T200 evaluation software 1.0, and the data was fit with a 1:1 binding model.
The target in the assay “cyno IL1RAP (GK017, …)” is T6, cyno IL1RAP (GK017, CynoIL1Racp-ECD-His6) (cyno, UniProt A0A2K5X5J5 21-367).
T6 construct: extracellular domain; also called CynoIL1RAP-ECD-His6 (GK017); cyno IL1RAP-ECD-His6 protein
T6 sequence: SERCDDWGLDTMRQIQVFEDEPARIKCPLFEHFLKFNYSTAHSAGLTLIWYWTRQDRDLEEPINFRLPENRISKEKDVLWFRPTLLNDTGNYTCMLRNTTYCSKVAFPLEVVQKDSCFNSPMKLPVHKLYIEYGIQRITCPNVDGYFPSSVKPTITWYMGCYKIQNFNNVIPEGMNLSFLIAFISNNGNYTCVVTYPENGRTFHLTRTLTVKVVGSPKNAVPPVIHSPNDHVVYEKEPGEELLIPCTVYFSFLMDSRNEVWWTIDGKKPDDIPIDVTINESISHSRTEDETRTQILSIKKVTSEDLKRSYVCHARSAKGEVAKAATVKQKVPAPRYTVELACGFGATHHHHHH
The assay is described as above.
Description: as §2, §3

B1: murine mAb048 (antibody, V domains shown)
VH: QVQLQQPGADLVKPGASVKLSCKAYGYTFFSYWMHWVRQRPGQGLEWIGMIHPNSGTTNNNEKFKSKATLTVDKSFSTAYMQLSSLTSEDSAVYYCARGYSNYDFDYWGQGTILTVSS
VL: DIKMTQFPSSMYASLGERVTITCKASQDINTYLIWIQQKPGKSPKTLIYRANRLADGVPSRFSGSGSGQDSSLTISSLEHEDMGIYYCLQYDEFPYTFGGGTKLEIK
notes: Murine anti-human IL1RAP mAb
In the case of B1, in assay [1], the Kd stood at 0.357 nM, the koff is 4.48e-05 s⁻¹ and the kon was found to be 125000 M⁻¹ s⁻¹.

B2: murine mAb001 (antibody, V domains shown)
VH: QVQLQQPGAELVRPGSSVKLSCKASGYTFTSYWMDWVKQRPGQGLEWIGNIYPSDSKTHYNQKFKDKATLTVDKSSSTAYMQLSSLTSEDSAVYYCARDYYGSIGMDYWGQGTSVTVSS
VL: DIQMTQSPSSLSASLGERVSLTCRASQEISGYLSWLQQKPDGTIKRLIYAASTLDSGVPKRFSGSRSGSDYSLTISSLESEDFADYYCLQYASYPWTFGGGTKLEIK
notes: Murine anti-human IL1RAP mAb
In assay [1], B2 had a Kd of 4.97 nM, a koff of 0.000282 s⁻¹ and a kon of 56700 M⁻¹ s⁻¹.

B3: GSK3903371A (antibody, human IgG1, kappa, V domains shown)
VH: EVQLVQSGAEVKKPGSSVKVSCKASGYTFNSYWIHWVRQAPGQGLEWMGYNNPTSGYSEYNQKFTDRVTITADKSTSTAYMELSSLRSEDTAVYYCAREYGDLFAYWGQGTLVTVSS
VL: AIQMTQSPSSLSASVGDRVTITCKASENVGYSVSWFQQKPGKSPKLLIYGASNRYTGVPSRFSGSGSATDFTLTISSLQPEDFATYHCGQIYIYPYTFGGGTKVEIKR
modifications: heavy chain constant region afucosylated (expressed in FUT8-knockout POTELLIGENT CHO cells)
notes: Humanized IgG1 kappa; also called afucosylated anti-IL1RAP mAb GSK3903371A
As to B3, in [2], the “CDC EC50, HEK293/IL1RAP target cells, experiment 1” value worked out at 6.16 nM and the “CDC EC50, HEK293/IL1RAP target cells, experiment 2” value was 5.9 nM. In assay [3], the “ADCC EC50, PBMC effector cells, OCI-AML-1 target cells, experiment 1” value worked out at 63.3 pM; the “ADCC EC50, PBMC effector cells, OCI-AML-1 target cells, experiment 2” value is 58.9 pM; the “ADCC EC50, PBMC effector cells, OCI-AML-1 target cells, experiment 3” value amounted to 70.5 pM; the “ADCC EC50, geometric mean (n=3), OCI-AML-1 target cells” value was 64.1 pM. In the assay with Cyno IL1RAP ECD [4], the Kd was 1.53 nM and the koff was 0.000226 s⁻¹. Moreover, in the assay with Human IL1RAP ECD [5], the affinity, expressed as Kd, was 1.61 nM and the koff was found to be 0.000268 s⁻¹. Also, in assay [6], binding was characterised by a dissociation constant (Kd) of 2.03 nM and the koff is 0.000199 s⁻¹. In the assay with Cyno IL1RAP ECD [7], this molecule returned a Kd of 3.47 nM and an off-rate (koff) of 0.000946 s⁻¹. In the assay with Human IL1RAP ECD [8], this molecule registered a Kd of 2.54 nM and a koff of 0.000942 s⁻¹. In assay [9], binding was characterised by a dissociation constant (Kd) of 3.58 nM and the koff is 0.00101 s⁻¹.

B4: mAb067-12 (humanized) (antibody, human IgG1, kappa, V domains shown)
VH: EVQLVQSGAEVKKPGSSVKVSCKASGYTFNSYWIHWVRQAPGQGLEWMGYNNPTSGYSEYNQKFTDRVTITADKSTSTAYMELSSLRSEDTAVYYCAREYGDLFAYWGQGTLVTVSS
VL: AIQMTQSPSSLSASVGDRVTITCKASENVGYSVSWFQQKPGKSPKLLIYGASNRYTGVPSRFSGSGSATDFTLTISSLQPEDFATYHCGQIYIYPYTFGGGTKVEIKR
notes: Fucosylated humanized IgG1; same chains as GSK3903371A; also called HumAb67-12; HumAb067-12
For the molecule B4, in [2], the “CDC EC50, HEK293/IL1RAP target cells, experiment 1” value was 5.13 nM and the “CDC EC50, HEK293/IL1RAP target cells, experiment 2” value stood at 4.7 nM. In assay [10], this molecule came in with a Kd of 0.953 nM, a koff of 0.000161 s⁻¹ and a kon of 169000 M⁻¹ s⁻¹. In addition, in the assay with cyno IL1RAP (GK017, …), binding was characterised by a dissociation constant (Kd) of 0.899 nM, the koff worked out at 0.00015 s⁻¹ and the kon was 167000 M⁻¹ s⁻¹.

B5: murine mAb117 (antibody, V domains shown)
VH: QAYLQQSGAELVRPGASVKMSCKASGYTFTSYNMHWVKQSPRQGLEWVGVFYLGNGDTSYNEKFKGKATLTVDKSSSTAYMQLSSLTSEDSAVYFCARPGGYANWYFDVWGTGTTVTVSS
VL: DIVMTQSQKFMSTSVGDWVSVTCKASQNVGTEVSWYQQKPGQSPNTLIYSASYRHSGVPDRFTGSGSGTEFTLTITNVQSEDLADYFCQQYNSFPLTFGAGTKLDLK
notes: Murine anti-human IL1RAP mAb
Turning to B5, in assay [1], the Kd stood at 0.193 nM, the koff was 4.28e-05 s⁻¹ and the kon stood at 222000 M⁻¹ s⁻¹.

B6: mAb063 (antibody, V domains shown)
VH: EVQLQQSGPELVKPGASVKISCKASGYTFTDYYMNWVKQSHGKSLEWIGHINPNSGSTTYTEKFKDKATLTVDKSSSTAYMELRSLTSDDSAVYYCVRRIGKNWHCDVWGTGTTVTVSS
VL: DIVLTQSPASLAVSLGQRATISCRASESVNFHGTHLMHWYQQKPGQAPKLLIYAASNLDSGVPARFSGSGSETDFTLNIHPVEEEDAATYFCQQSIEDPFTFGSGTYLEIK
notes: Murine anti-human IL1RAP mAb; also called murine mAb063
In assay [1], B6 gave a dissociation constant (Kd) of 0.0496 nM, a koff of 2.12e-05 s⁻¹ and a kon of 426000 M⁻¹ s⁻¹.

B7: murine mAb067 (antibody, V domains shown)
VH: QVKLHQSGAELAKPGASVKMSCKASGYTFNSYWIHWVKQRPGQGLEWIGYNNPTSGYSEYNQKFTDKATLSADKSSSTAYMQLSSLTSEDSAVYYCVREYGDLFAYWGQGTLVTVSA
VL: NIVMTQSPKSMSMSVGERVTLSCKASENVGYSVSWFQQKPDQSPKLLIYGASNRYTGVPDRFTGSGSATDFTLTISTVQAEDLADYHCGQIYIYPYTFGGGTKLEIK
notes: Murine anti-human IL1RAP mAb
In assay [1], B7 registered a Kd of 0.3 nM, a koff of 0.000102 s⁻¹ and a kon of 340000 M⁻¹ s⁻¹.
